According to patent US6887705B1, “Tyrosine phosphorylated cleavage furrow-associated proteins (PSTPIPs)” (Genentech, Inc., priority 1997, dated 2005):

Experiments:
Test in all cases: in vitro translated PTP HSCF mutant precipitated with 1 or 10 µg/ml GST PST PIP
[1] = biological target: T1, PTP HSCF with P443 mutated to alanine, HA tagged (UniProt Q61152 1-453)
T1 construct: range 1-453; also called HSCF P443
T1 sequence (looked up): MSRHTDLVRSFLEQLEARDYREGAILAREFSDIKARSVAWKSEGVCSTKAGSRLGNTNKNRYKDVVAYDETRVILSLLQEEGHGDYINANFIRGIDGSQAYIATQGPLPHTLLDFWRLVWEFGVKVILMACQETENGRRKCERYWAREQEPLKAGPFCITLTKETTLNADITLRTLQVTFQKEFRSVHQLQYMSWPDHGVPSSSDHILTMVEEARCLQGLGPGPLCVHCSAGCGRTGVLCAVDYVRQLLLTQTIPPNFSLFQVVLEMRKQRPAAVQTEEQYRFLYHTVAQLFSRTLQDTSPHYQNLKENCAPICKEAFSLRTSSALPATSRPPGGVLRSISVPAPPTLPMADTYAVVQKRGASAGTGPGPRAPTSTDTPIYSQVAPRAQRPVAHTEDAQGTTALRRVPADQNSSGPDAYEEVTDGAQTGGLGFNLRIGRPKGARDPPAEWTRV
Description: (§1) Multiple bands precipitated with the GST PST PIP fusion protein are apparently C-terminal proteolyzed products of the PTP. Also shown are GST PST PIP precipitations (10 μg/ml) performed on a double mutant of PTP HSCF (R+W) with both residues $R444$ and $W450$ mutated to alanine (bottom panel FIG. 14 A/2). B. COS cells were co-transfected with a 10:1 ratio of plasmids encoding hemagglutinin (HA) tagged PTP HSCF with the illustrated alanine substitutions or a mutant of PTP HSCF deleted for the C-terminal 24 amino acids (PTP $HSCFD24$) and wild type PST PIP with a C-terminal FLAG epitope tag, respectively. Transfected cell lysates were immunoprecipitated with anti-HA monoclonal antibodies and the precipitates were blotted with anti-PST PIP polyclonal antibody to detect the relative amounts of PST PIP complexed with either wild type or different mutant forms of PTP HSCF. Lysates were also immunoprecipitated with anti-HA antibody and blotted with the same antibody to insure equal expression of PTP HSCF. Equal expression of PSTPIP was determined by immunoprecipitating lysates with anti-FLAG monoclonal antibody and blotting with anti-PST PIP polyclonal antibody.
(§2) In vitro binding analyses between various PTP HSCF and PST PIP constructs were performed as previously described (Spencer et al, (1997), supra). Briefly, plasmids were transcribed and translated in vitro using the TnT Rabbit Reticulocyte Lysate System (Promega). Samples were diluted in 50 mM HEPES, pH 7.2, 1% triton X-100, 10% glycerol, 100 mM NaCl, and 2 µg/ml each of leupeptin, pepstatin, aprotinin and PMSF (lysis buffer). Samples were than reacted with GST fusion proteins at various concentrations, and the bound proteins were centrifuged using glutathione-sepharose beads and analyzed on SDS polyacrylamide gels. C-terminally-derived peptide inhibition studies were performed by incubating the GST fusion protein binding reactions in the presence of 10 µg/ml of the indicated peptides. Peptides were produced by FMOC-protected amino acids as previously described (Spencer et al, (1997), supra). In vivo interactions between various forms of PTP HSCF and PST PIP were also performed as previously described (Spencer et al, (1997), supra).

[2] = biological target: T2, PTP HSCF with P440 mutated to alanine, HA tagged (UniProt Q61152 1-453)
T2 construct: range 1-453; also called HSCF P440
T2 sequence (looked up): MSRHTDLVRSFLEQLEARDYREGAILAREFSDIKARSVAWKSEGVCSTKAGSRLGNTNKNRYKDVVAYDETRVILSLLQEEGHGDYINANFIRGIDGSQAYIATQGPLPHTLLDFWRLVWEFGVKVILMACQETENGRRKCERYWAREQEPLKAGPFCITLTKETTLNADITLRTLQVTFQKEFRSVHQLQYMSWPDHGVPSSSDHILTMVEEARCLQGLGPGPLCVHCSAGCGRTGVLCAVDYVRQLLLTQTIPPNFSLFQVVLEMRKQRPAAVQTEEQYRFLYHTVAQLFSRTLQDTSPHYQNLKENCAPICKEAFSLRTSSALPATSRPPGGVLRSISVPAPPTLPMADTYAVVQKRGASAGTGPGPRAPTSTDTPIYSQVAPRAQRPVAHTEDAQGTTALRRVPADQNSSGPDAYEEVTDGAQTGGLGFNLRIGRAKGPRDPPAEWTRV
Description: as §1, §2

[3] = biological target: T3, PTP HSCF with W450 mutated to alanine, HA tagged (UniProt Q61152 1-453)
T3 construct: range 1-453; also called HSCF W450
T3 sequence (looked up): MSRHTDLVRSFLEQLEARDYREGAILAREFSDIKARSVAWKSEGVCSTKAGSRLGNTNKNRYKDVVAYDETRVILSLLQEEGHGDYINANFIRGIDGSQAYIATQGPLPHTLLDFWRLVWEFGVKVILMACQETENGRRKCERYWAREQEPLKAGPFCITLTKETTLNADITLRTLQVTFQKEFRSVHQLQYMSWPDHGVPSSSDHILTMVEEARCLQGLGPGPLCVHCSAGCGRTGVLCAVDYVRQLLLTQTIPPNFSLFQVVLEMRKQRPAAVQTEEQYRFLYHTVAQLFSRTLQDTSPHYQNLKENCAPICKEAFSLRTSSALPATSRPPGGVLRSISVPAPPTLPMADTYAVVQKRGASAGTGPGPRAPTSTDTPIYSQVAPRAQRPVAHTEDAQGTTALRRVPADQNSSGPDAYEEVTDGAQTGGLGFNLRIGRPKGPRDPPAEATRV
Description: as §1, §2

[4] = biological target: T4, PTP HSCF with P447 mutated to alanine, HA tagged (UniProt Q61152 1-453)
T4 construct: range 1-453; also called HSCF P447
T4 sequence (looked up): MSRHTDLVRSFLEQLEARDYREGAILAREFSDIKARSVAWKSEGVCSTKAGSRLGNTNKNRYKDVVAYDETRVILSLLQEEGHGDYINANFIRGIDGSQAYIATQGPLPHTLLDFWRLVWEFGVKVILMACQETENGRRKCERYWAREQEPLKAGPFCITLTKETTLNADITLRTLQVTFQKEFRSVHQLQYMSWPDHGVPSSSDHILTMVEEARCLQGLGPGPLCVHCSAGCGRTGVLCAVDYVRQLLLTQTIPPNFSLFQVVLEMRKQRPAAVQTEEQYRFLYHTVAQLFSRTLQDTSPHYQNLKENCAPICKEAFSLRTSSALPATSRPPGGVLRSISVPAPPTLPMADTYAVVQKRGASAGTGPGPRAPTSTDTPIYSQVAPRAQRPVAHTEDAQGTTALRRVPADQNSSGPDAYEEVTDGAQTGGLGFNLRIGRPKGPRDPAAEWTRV
Description: as §1, §2

binding result [1]: binds | binding result [2]: binds | binding result [3]: binds | binding result [4]: binds
B1: GST-PSTPIP (GST fusion of full-length PSTPIP, amino acids 2-415) (other)
chain: MAQLQFRDAFWCRDFTAHTGYEVLLQRLLDGRKMCKDVEELLRQRAQAEERYGKELVQIARKAGGQTEMNSLRTSFDSLKQQTENVGSAHIQLALALREELRSLEEFRERQKEQRKKYEAIMDRVQKSKLSLYKKTMESKKAYDQKCRDADDAEQAFERVSANGHQKQVEKSQNKAKQCKESATEAERVYRQNIEQLERARTEWEQEHRTTCEAFQLQEFDRLTILRNALWVHCNQLSMQCVKDDELYEEVRLTLEGCDVEGDINGFIQSKSTGREPPAPVPYQNYYDREVTPLIGSPSIQPSCGVIKRFSGLLHGSPKTTPSAPAASTETLTPTPERNELVYASIEVQATQGNLNSSAQDYRALYDYTAQNSDELDISAGDILAVILEGEDGWWTVERNGQRGFVPGSYLEKL
notes: Made in DH5-alpha bacteria from pGEX4T-2; also called GST-full-length PSTPIP; GST PTP PIP; not shown: glutathione S-transferase encoded by pGEX-4T-2 (Pharmacia)
